Test results from article doi:10.1101/2022.09.01.506260.

Columns and labels:
[1] = target: PEAK3^tandem-pS69 peptide pre-complexed with 14-3-3ɣ (human); experiment: ITC
[2] = target: PEAK3^tandem-pS69 phosphopeptide (residues 54-74) (human); experiment: ITC
[3] = target: full length recombinant PEAK3 (PEAK3^FL) from insect cells (human) (UniProt Q6ZS72); experiment: SEC-MALS
[4] = target: PEAK2^IDR1 (N-terminally truncated PEAK2, residues 802-1406) (human) (UniProt Q86YV5); experiment: SEC-MALS
PEAK2^IDR1 (N-terminally truncated PEAK2, residues 802-1406) (human), sequence (Q86YV5 802-1406): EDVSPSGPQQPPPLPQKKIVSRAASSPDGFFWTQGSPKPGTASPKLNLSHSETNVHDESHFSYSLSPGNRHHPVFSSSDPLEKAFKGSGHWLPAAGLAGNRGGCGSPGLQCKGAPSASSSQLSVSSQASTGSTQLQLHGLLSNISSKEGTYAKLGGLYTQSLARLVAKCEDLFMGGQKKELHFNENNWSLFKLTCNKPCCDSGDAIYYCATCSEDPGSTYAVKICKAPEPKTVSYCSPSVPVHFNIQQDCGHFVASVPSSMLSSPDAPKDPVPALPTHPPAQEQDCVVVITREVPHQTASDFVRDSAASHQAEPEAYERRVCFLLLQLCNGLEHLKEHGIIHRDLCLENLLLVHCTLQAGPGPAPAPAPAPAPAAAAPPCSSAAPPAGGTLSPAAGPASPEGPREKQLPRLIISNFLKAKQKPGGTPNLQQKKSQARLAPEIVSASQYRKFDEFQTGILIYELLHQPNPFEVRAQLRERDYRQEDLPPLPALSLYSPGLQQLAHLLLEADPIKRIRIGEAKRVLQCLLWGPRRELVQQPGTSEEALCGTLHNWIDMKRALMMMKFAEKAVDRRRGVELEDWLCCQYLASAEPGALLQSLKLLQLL

full length recombinant PEAK3 (PEAK3^FL) from insect cells (human), sequence (Q6ZS72 whole entry, the tested form may be a part): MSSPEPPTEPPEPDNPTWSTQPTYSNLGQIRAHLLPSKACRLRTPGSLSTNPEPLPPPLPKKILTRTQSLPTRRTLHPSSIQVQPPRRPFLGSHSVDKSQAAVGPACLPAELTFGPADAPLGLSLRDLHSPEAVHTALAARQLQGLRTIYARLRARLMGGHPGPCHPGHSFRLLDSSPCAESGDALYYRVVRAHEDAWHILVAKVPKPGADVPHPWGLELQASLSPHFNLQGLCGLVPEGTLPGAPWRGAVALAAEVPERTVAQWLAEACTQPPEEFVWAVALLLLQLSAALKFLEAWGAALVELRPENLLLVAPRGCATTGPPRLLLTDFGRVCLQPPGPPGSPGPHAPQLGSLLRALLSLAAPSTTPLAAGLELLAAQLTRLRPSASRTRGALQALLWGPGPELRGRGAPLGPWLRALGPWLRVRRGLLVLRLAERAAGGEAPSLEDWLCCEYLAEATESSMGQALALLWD
CrkII NSH3 domain (CrkII^NSH3), sequence (P46108 134-191): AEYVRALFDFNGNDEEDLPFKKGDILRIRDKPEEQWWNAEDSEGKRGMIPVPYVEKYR

Q: How did the Kd [1] turn out when “CrkII NSH3 domain (CrkII^NSH3) (from UniProt P46108-1 134-191) (domain or fragment)” was run?
A: 3.6 µM

Q: Which Kd [2] does the source give for human 14-3-3γ (natural protein) here?
A: 130 nM

Q: Which stoichiometry N (ratio (dimer:dimer)) [3] does the source give for “insect cell derived 14-3-3ε,ζ heterodimer (complex)” here?
A: 1

Q: “full length CrkII, dimer (CrkII^FL dimer) (from UniProt P46108-1 1-304) (natural protein)” was tested. Which stoichiometry N [4] did it give?
A: 1 ratio (2:2)
